Sequences and labels used below:
B1: Clone C (antibody, V domains shown)
VH: EVQLQQSGTVLARPGASVKMSCKASGYTFTRYWMHWVKQRPGQDLEWIGGFYPGNSDTRYNQKFKDKAKLTAVTSTSTAYMELSSLTNEDSAVYYCTRGDRHDEGFAYWGQGTLVTVSA
VL: DIQMTQSPASLSASVGETVTITCRASGNIHNYLAWYQQKQGKSPQLLVYNAKTLPDGVPSRFSGSGSGTQYSLKINSLQPEDFGTYYCQNIWTNYTFGGGTKLEIK
notes: Murine hybridoma antibody tested as supernatant; also called anti-CD38 murine hybridoma clone C
B2: Clone D (antibody, V domains shown)
VH: QIQLVQSGPELKKPGETVKISCKASGYTFTNYGMNWVKQAPGEDLKWMGWLNTNTGEPTYAEEFKGRFAFSLETSASTAYLQINNLRNEDTATYFCARWYYGSSDNSYAMDYWGQGTSVTVSS
VL: ETIVTQFPASLSMAIGEKVTIRCITSTDIDDDMNWYQQRPGEPPKLLISEGNTLRPGVPSRFSSSGYGTDFVFTFENMLSEDVADYYCLQSDSLPYTVGGGTRLEIK
notes: Murine hybridoma antibody tested as supernatant; also called anti-CD38 murine hybridoma clone D
B3: Clone A (antibody, V domains shown)
VH: QVQLQQSGAELVKPGASVKISCKASGYTFSNYWIEWVKQRPGLGLEWIGDILPGSGTTNYNEKFKGKATFTADTSSNTAYMQLSSLTSEDSAVYYCAGYGNYLWFTYWGQGTLVTVSA
VL: DIQMNQSPSSLSASLGDTITITCHASQNINVWLSWYQQKPGNIPKLLIYKASNLHTGVPSRFSGSGSGTGFTLTISSLQPEDIATYYCQQGQSYPYTFGGGTKLEIK
notes: Murine hybridoma antibody tested as supernatant; also called anti-CD38 murine hybridoma clone A
B4: Clone G (antibody, V domains shown)
VH: QVQLQQPGPELVKPVASVKISCKTSDYAFSSSWMNWVKQRPGKGLEWIGWIYPGDGDTNYNGKFKGKATLTADKSSSTAYMQLSSLTSEDSAVYFCARGRWGMDNWGQGTSVTVSS
VL: DIVMTQSHKFMSTSVGDRVSITCKASQNVVTAVAWYQQKPGQSPKLLIYWASSRHTGVPDRFTGSGSGTDFTLTISNVQSEDLADYFCQQYSNYPFTFGSGTKLEIK
notes: Murine hybridoma antibody tested as supernatant; also called anti-CD38 murine hybridoma clone G
B5: Clone H (antibody, V domains shown)
VH: QVPLHQSGPELIKPGASLKISCKASDSAFNNSWMNWVRQRPGKGLEWIGWIYPGDDDTKYNGKFMGKATLTADKSSGTAYMQLSSLTSEDSAVYFCARGRWGMDYWGQGTSVTVSS
VL: B4 VL with S7F, K9N, S20N, T22N, S53T
notes: Murine hybridoma antibody tested as supernatant; also called anti-CD38 murine hybridoma clone H
B6: Clone I (antibody, V domains shown)
VH: B5 VH with H5Q, I12V, L18V, M34T, N35I
VL: B4 VL with H8R, T22S, S53T, K103E
notes: Murine hybridoma antibody tested as supernatant; also called anti-CD38 murine hybridoma clone I
B7: Clone F (antibody, V domains shown)
VH: EVQLQQSGAEFVRPGASVKLSCTASGFNIKDSLMHWVKQRPEQGLEWIGWIDPEDDKTKYAPKFQDEATLTADTSSNTAYLHLSSLTSEDTAIYYCARRFLRGFAYWGQGTLVTVSA
VL: DIVMTQSPSSLSVSAGEKVTMSCKSSQSLLNSGNQKNYLAWYQQKPGQPPKLLIYGASTRESGVPDRFTGSGSGTDFTLTISSVQAEDLAVYYCQNDHSYPYTFGGGTKLEIK
notes: Murine hybridoma antibody tested as supernatant; also called anti-CD38 murine hybridoma clone F
B8: Clone E (antibody, V domains shown)
VH: QVQLQQSGAELVRPGTSVKMSCKAAGYTFTNHWIEWVKQRPGHGLEWIGDIFPGGGYTDYNEKFKGKATLTADTSSSTAYMQLSSLTSEDSAIYYCARGRDLAMDYWGQGTSVTVSS
VL: B3 VL with S34G
notes: Murine hybridoma antibody tested as supernatant; also called anti-CD38 murine hybridoma clone E
B9: Clone B (antibody, V domains shown)
VH: QAYLQQSGAEVVRSGASVKMSCKAAGYTFTSYNMHWVKQTPGQGLEWIGYIYPGNGGTNYNQKFKGKATLTADTSSTTAYMQISSLTSEDSAVYFCARGASMITTGAWFAYWGQGTLVTVSA
VL: NIVLTQSPASLAVSLGQRATISCRASESLDTYGNSFMYWYQQKPGQPPKLLIYLASSLESGVPARFSGSGSRTDFTLTIDPVEADDAATYYCHQNHEDPWTFGGGTKLEIK
notes: Murine hybridoma antibody tested as supernatant; also called anti-CD38 murine hybridoma clone B
B10: IgG B-2 (antibody, V domains shown)
VH: QVQLVQSGAEVKKPGSSVKVSCKASGYTFTSYNMHWVRQAPGQGLEWMGYIYPGNGGTNYNQKFKGRVTITADESTSTAYMELSSLRSEDTAVYYCARGASMITTGAWFAYWGQGTLVTVSS
VL: DIQMTQSPSSVSASVGDRVTITCRASESLDTYGNSFMYWYQQKPGKAPKLLIYLASSLESGVPSRFSGSGSGTDFTLTISSLQPEDFATYYCHQNHEDPWTFGQGTKVEIK
notes: also called humanized Clone B IgG (BVH1 / BVL1)
B11: IgG OKT10-1 (antibody, V domains shown)
VH: EVKLQESGGGLVQPGGSLKLSCAASGFDFSRSWMNWVRQAPGKGLEWIGEINPDSSTINYTTSLKDKFIISRDNAKNTLYLQMTKVRSEDTALYYCARYGNWFPYWGQGTLVTVSA
VL: DIVMTQSPKIMPTSVGDRVSVTCKASQNVDTNVAWYQQKPGQSPKALIYSASYRYSGVPDRFTGSGSGTDFTLTITNVQSEDLAEYFCQQYDSYPLTFGAGTKLDLK
notes: also called parental OKT10 in IgG format
B12: IgG E-2 (antibody, V domains shown)
VH: QVQLVQSGAEVKKPGSSVKVSCKASGYTFTNHWIEWVRQAPGQGLEWMGDIFPGGGYTDYNEKFKGRVTITADESTSTAYMELSSLRSEDTAVYYCARGRDLAMDYWGQGTLVTVSS
VL: DIQMTQSPSSLSASVGDRVTITCHASQNINVWLGWYQQKPGKAPKLLIYKASNLHTGVPSRFSGSGSGTDFTLTISSLQPEDFATYYCQQGQSYPYTFGQGTKVEIK
notes: also called humanized Clone E IgG (EVH1 / EVL1)
B13: IgG E-1 (antibody, V domains shown)
VH: B8 VH
VL: B3 VL with S34G
notes: also called chimeric IgG of Clone E
B14: IgG OKT10-2 (antibody, V domains shown)
VH: EVQLLESGGGLVQPGGSLRLSCAASGFDFSRSWMNWVRQAPGKGLEWVSEINPDSSTINYATSLKDRFTISRDNSKNTLYLQMNSLRAEDTAVYYCARYGNWFPYWGQGTLVTVSS
VL: DIQMTQSPSSLSASVGDRVTITCKASQNVDTNVAWYQQKPGKAPKALIYSASYRYSGVPSRFSGSGSGTDFTLTISSLQPEDFATYYCQQYDSYPLTFGQGTKVEIK
notes: also called humanized OKT10 IgG (OKT10VH2 / OKT10VL2)
B15: IgG B-1 (antibody, V domains shown)
VH: B9 VH
VL: B9 VL
notes: also called chimeric IgG of Clone B

Experimental findings from US20250051473A1 (IGM BIOSCIENCES, published 2025) are described below.

Numbering of substitutions follows the chain as printed.

A word on the Kd: it is the equilibrium constant for the complex coming apart. A word on the koff: it is a measure of how fast the partners let go of each other. Usually kon stands for the second-order rate constant of association.

One assay addresses T1, recombinant human CD38 extracellular domain protein (ACROBiosystems, Cat #CD8-H5224) (human, UniProt P28907 43-300).
T1 construct: Bought protein; also called recombinant human CD38 protein
Description: ELISA screen of hybridoma supernatants on recombinant CD38. (In general: An ELISA detects its analyte on a solid surface through an enzyme-linked reagent.)
As for B1, the binding result was “binds”.

With B2, the binding result is on record as “binds”.

In the case of B3, the binding result is reported as “binds”.

For B4, the binding result is listed as “binds”.

Consider B5, for which the binding result is “binds”.

On to B6, for which the binding result is given as “binds”.

For B7, the binding result is listed as “binds”.

The next assay addresses T2, recombinant cynomolgus monkey CD38 extracellular domain protein (ACROBiosystems) (cynomolgus monkey, UniProt Q5VAN0 44-301).
T2 construct: Bought extracellular domain protein; also called cyno CD38; recombinant cyno CD38
The assay is described as above.
B1: the binding result is “binds”.

For B2, the binding result was “binds”.

As to B3, the binding result is “binds”.

For B8, the binding result is reported as “binds”.

For B4, the binding result is given as “binds”.

As to B5, the binding result is listed as “binds”.

In the case of B6, the binding result is reported as “binds”.

Consider B7, for which the binding result is “binds”.

For B9, the binding result is “binds”.

The next assay concerns the target T1, recombinant human CD38 extracellular …. Description: BLI (Octet 384), IgG on anti-human IgG Fc biosensors, soluble human CD38 as analyte, 1:1 global fit.
Description: Samples and buffer were applied in 384-well plates. After an initial baseline calibration for 60 seconds, sensors were loaded with 20 nM of IgG antibodies. The biosensors were dipped into buffer to reach a baseline value and incubated for 600 seconds with 2-fold serial diluted human CD38 protein starting at 100 nM for association, followed by 900 seconds in buffer for dissociation.
For the molecule B10, the Kd was determined as 0.8 nM, the koff was 0.000225 s⁻¹ and the on-rate constant (kon) is 281000 M⁻¹ s⁻¹.

As to B11, the equilibrium dissociation constant (Kd) turned out to be 5.97 nM, the koff was 0.00206 s⁻¹ and the kon is 344000 M⁻¹ s⁻¹.

Consider B12, for which the dissociation constant Kd worked out at 7.62 nM, the koff is 0.00378 s⁻¹ and the on-rate (kon) worked out at 496000 M⁻¹ s⁻¹.

Take B13: the Kd came out at 1.99 nM, the koff stood at 0.00117 s⁻¹ and the kon is 587000 M⁻¹ s⁻¹.

For B14, the Kd turned out to be 28.3 nM, the dissociation rate constant (koff) was found to be 0.0113 s⁻¹ and the kon worked out at 400000 M⁻¹ s⁻¹.

Regarding B15, the Kd is 0.526 nM, the off-rate constant (koff) worked out at 7.32e-05 s⁻¹ and the association rate constant (kon) is 139000 M⁻¹ s⁻¹.
